Results reported in patent US20190048062A1 (BRACCO SUISSE, published 2019).

What was measured:
Experiment in all cases: flow chamber, microvesicles on selectin-Fc coating
[1] = target: T1, human Fc P selectin (R&D catalog number 137-PS 50) (human, UniProt P16109 42-771)
T1 construct: Bought; coated in the flow chamber at 4 µg/mL; also called Human P selectin; human P-selectin; Fc part of the bought chimera not given
T1 sequence (looked up): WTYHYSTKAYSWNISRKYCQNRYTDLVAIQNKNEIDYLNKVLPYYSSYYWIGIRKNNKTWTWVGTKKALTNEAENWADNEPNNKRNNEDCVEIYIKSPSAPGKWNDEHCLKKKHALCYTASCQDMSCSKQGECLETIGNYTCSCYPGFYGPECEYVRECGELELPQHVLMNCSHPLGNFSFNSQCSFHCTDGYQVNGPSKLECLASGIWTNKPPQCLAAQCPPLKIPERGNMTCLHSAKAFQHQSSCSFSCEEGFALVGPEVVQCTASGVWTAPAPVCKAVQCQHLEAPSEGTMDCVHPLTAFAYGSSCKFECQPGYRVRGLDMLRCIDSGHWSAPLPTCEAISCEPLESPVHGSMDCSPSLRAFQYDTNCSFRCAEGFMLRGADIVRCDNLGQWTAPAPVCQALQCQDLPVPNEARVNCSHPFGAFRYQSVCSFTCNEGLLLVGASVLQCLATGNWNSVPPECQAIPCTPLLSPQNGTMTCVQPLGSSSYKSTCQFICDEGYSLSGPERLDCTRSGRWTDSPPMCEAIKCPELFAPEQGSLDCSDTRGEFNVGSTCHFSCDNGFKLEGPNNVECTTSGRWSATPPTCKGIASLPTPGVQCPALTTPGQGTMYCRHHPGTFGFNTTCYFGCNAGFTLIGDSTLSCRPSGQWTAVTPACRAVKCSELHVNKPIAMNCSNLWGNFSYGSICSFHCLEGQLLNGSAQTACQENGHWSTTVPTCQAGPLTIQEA
Procedure: (§1) To test the effective binding, targeted microvesicles prepared as described in WO2012/020030 (Example 6) and those prepared according to the present invention (example 8) were injected in a flow chamber set up comprising a coating of mouse Fc P-Selectin (catalog number 737-PS, R&D Systems, Minneapolis, Minn., USA) or human Fc P and E selectins (R&D catalog numbers 137-PS 50 and 724 ES 100) at 4 μg/mL. Microvesicles (at equivalent number of 80×10⁶/400 μL TBS++) were injected through the flow chamber (FCS2, Bioptech, USA) in a bolus fashion and their adhesion onto the mouse P-selectin (or human P- or E-selectin) coating layer assessed over a period of 10 min at a flow rate of 1.0 mL/min (shear rate of 714 s⁻¹) in the presence of 50% (v:v) human plasma (Stehelin & Cie A G) in TBS. A quantitative analysis of microvesicles accumulation was performed by counting the number of microvesicles adhering in the observed area at 2 min intervals over the total 10 min infusion, using the image processing program Analysis FIVE (SIS, Germany). After 10 min, five pictures were taken randomly and the number of bound microvesicles was measured and expressed as the number of bound bubbles (NBB) at 10 min. Each observed area was 183×137 μm, as measured with the aid of a stage micrometer. Measurement was performed between the middle and the exit of the chamber.
(§2) Similarly, suspensions of targeted microvesicles prepared according to example 8 (Variant 1A as targeting ligand) was injected in a flow chamber as described above, and their binding activity determined according to the above procedure.

[2] = target: T2, human Fc E selectin (R&D catalog number 724 ES 100) (human, UniProt P16581 22-556)
T2 construct: Bought; coated in the flow chamber at 4 µg/mL; also called Human E selectin; human E-selectin; Fc part of the bought chimera not given
T2 sequence (looked up): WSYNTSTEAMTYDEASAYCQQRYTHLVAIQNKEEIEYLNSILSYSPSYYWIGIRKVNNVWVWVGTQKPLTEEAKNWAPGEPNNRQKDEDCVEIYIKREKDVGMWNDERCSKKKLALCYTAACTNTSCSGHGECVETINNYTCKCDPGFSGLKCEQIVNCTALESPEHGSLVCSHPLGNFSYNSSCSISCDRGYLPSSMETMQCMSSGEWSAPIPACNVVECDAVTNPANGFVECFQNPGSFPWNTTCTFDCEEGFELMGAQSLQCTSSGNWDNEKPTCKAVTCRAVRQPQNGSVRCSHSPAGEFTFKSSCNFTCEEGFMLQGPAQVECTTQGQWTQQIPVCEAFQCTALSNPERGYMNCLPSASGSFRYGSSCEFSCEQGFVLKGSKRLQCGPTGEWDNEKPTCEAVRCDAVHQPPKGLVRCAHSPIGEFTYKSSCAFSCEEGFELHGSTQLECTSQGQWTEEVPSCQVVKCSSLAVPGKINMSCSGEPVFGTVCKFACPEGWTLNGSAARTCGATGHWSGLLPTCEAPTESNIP
Procedure: as §1, §2

[3] = target: T3, mouse Fc P-Selectin (catalog number 737-PS, R&D Systems) (mouse, UniProt Q01102 42-709)
T3 construct: Bought; coated in the flow chamber at 4 µg/mL; also called Mouse P selectin; mouse P-selectin; Fc part of the bought chimera not given
T3 sequence (looked up): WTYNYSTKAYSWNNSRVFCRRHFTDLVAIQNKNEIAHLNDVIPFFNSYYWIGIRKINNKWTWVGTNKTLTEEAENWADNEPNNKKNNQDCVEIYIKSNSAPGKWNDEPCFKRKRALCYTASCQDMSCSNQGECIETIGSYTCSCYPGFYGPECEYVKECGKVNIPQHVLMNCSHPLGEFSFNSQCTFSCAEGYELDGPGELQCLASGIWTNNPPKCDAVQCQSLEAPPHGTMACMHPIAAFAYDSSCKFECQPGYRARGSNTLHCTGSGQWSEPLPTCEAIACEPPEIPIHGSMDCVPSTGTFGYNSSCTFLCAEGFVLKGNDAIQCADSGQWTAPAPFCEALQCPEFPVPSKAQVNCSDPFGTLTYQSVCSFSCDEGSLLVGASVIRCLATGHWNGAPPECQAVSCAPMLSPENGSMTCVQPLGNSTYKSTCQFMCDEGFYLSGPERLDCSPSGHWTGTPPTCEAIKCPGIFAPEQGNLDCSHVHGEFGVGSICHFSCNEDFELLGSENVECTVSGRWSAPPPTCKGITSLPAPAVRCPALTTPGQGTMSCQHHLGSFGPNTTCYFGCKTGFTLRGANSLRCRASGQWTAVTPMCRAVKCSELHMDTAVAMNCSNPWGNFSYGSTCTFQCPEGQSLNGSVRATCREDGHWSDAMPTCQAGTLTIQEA
Procedure: as §1, §2

Measured: binding result

B1: microbubble Variant 1A (gas-filled microvesicles carrying the DSPE-PEG-SH/Variant 1A-SMCC conjugate) (other)
chain: QATEYEYLDYDFLPETEPPEMLRNSTDTTPLTGPGTPESTTVEPAARPHTCPPCPLQQRRGLEAERARLAAQLDALRAEVARLARERDLYGGGGAGGGGKG
modifications: as Variant 1A (pyroglutamate N-terminus, sulfated Tyr 5, 7, 10, O-glycan on Thr16); reacted with Sulfo-SMCC and linked to DSPE-PEG2000-SH, held in the phospholipid envelope of the microvesicle
notes: many copies of the ligand on each microvesicle, so the read-out is multivalent adhesion; also called MB-PSGL-1 Variant 1A; microvesicles with Variant 1A
binds: all assays above
